Measurements as given in US20240336686A1 (ELPISCIENCE SUZHOU BIOPHARMA, published 2024).
Like-named read-outs stand apart in the source and are kept apart here.

Tests used:
[1] = molecular target: T1, His tagged human SIRPα v1 ECD (human, UniProt P78324 31-373); test: HDX-MS
T1 construct: extracellular domain; not shown: His tag

[2] = molecular target: T2, Full length human SIRPα v1 with beta-gal fragment (ED) at its C-terminal, in K562 cells (human, UniProt P78324 31-504); test: cell-based or functional assay
[3] = molecular target: T2, Full length human SIRPα v1 with …; test: cell-based or functional assay; remark: listed apart in the source
Human SIRPα v2 = molecular target: T3, Human SIRPα v2 (human); test: SPR (Biacore), 1:1 binding model
T3 construct: also called human SIRPα v2 (antigen of the Biacore assay)
Procedure: The humanized antibodies were characterized for binding affinity against human SIRPα v1, human SIRPα v2 using Surface Plasmon Resonance technology (Biacore system). The association and dissociation curves were fit with 1:1 binding model, and the Ka/Kd/KD values for each antibody were calculated.

[4] = molecular target: T4, human SIRPα v1 on CHOK1 cells (human, UniProt P78324 31-504); test: FACS, CHOK1 cells stably expressing human SIRPα v1
T4 construct: whole, on cells; also called CHOK1-hSIRPα v1; cell surface human SIRPα v1
Source text: (§1) Binding activity of the purified chimeric antibodies against human SIRPα variants was detected by FACS assay using CHOK1 cells or 293F cells stably expressing human SIRPα v1 and CHOK1 cells stably expressing human SIRPα v2. […] EC₅₀ and top signal calculated using GraphPad Prism9.0.

[5] = molecular target: T5, human SIRPα v2 on CHOK1 cells (human, UniProt P78324 31-504); test: FACS, CHOK1 cells stably expressing human SIRPα v2
T5 construct: whole, on cells; also called CHOK1-hSIRPα v2; cell surface human SIRPα v2
Source text: as §1

[6] = molecular target: T4, human SIRPα v1 on CHOK1 cells; test: FACS, CHOK1 cells stably expressing human SIRPα v1; remark: listed apart in the source
[7] = molecular target: T5, human SIRPα v2 on CHOK1 cells; test: FACS, CHOK1 cells stably expressing human SIRPα v2; remark: listed apart in the source
[8] = molecular target: T6, mFc tagged human SIRPα v1 ECD recombinant protein (human, UniProt P78324 31-373); test: competitive ELISA; row antibody in excess in solution, coated mAb 025c
T6 construct: extracellular domain; not shown: mouse Fc tag
Procedure: (§2) Competitive ELISA assay was used for epitope binning of purified chimeric antibodies. Briefly excessive competitor antibody and mFc tagged human SIRPα v1 ECD recombinant protein were co-incubated with ELISA microplate coated antibody. After washing, HRP labeled anti-mouse Fc 2nd antibody (Sigma) was added and incubated at 37° C. for 1 hour. Then, 100 μl/well of TMB solution (Biotechnology) was added. After incubation for 15 minutes at room temperature, the reaction was stopped by the addition of 50 μl of 1N HCl. OD 450 nm was read. Competition ratio was calculated. The antibodies that can compete each other for binding to SIRPα may have related binding epitopes.

[9] = molecular target: T6, mFc tagged human SIRPα v1 ECD …; test: competitive ELISA; row antibody in excess in solution, coated mAb 042c
Procedure: as §2

[10] = molecular target: T6, mFc tagged human SIRPα v1 ECD …; test: competitive ELISA; row antibody in excess in solution, coated mAb hu1H9G4
Procedure: as §2

[11] = molecular target: T7, human SIRPα v1 ECD recombinant protein (human, UniProt P78324 31-373); test: competitive ELISA, plate-coated human SIRPα v1 ECD; blocked ligand: mFc tagged human CD47 ECD
T7 construct: extracellular domain; Coated on the ELISA plate
Procedure: (§3) Competitive ELISA assay was used to determine whether the purified chimeric antibodies can block CD47 and SIRPα interaction. Briefly, antibody and mFc tagged human CD47 ECD recombinant protein were co-incubated with ELISA microplate coated human SIRPα v1 ECD or human SIRPα v2 ECD recombinant protein. The concentration of soluble ECD of CD47 is 25 nM, and the concentration of soluble ECD of SIRPα is 20 nM. After washing, HRP labeled anti-mouse Fc 2nd antibody (Sigma) was added and incubated at 37° C. for 1 hour. Then, 100 μl/well of TMB solution (Biotechnology) was added. After incubation for 15 minutes at room temperature, the reaction was stopped by the addition of 50 μl of 1N HCl. OD 450 nm was read. Blocking ratio was determined by blockade of human SIRPα ECD recombinant protein binding to ELISA microplate coated human CD47 ECD recombinant protein. All antibodies as tested can block interaction between human CD47 and different human SIRPα variants.

[12] = molecular target: T8, human SIRPα v2 ECD recombinant protein (human); test: competitive ELISA, plate-coated human SIRPα v2 ECD; blocked ligand: mFc tagged human CD47 ECD
T8 construct: extracellular domain; Coated on the ELISA plate
Procedure: as §3

[13] = molecular target: T7, human SIRPα v1 ECD recombinant protein; test: competitive ELISA, plate-coated human SIRPα v1 ECD; blocked ligand: mFc tagged human CD47 ECD; remark: listed apart in the source
Procedure: as §3
(§4) The humanized antibodies were tested for the ability to block CD47 and SIRPα interaction with competitive ELISA assay (refer to methods described above).

[14] = molecular target: T8, human SIRPα v2 ECD recombinant protein; test: competitive ELISA, plate-coated human SIRPα v2 ECD; blocked ligand: mFc tagged human CD47 ECD; remark: listed apart in the source
Procedure: as §3, §4

[15] = molecular target: T7, human SIRPα v1 ECD recombinant protein; test: competitive ELISA, plate-coated human SIRPα v1 ECD; blocked ligand: mFc tagged human CD47 ECD; remark: listed apart in the source
Procedure: as §3, with “ECD” for “ECD or human SIRPα v2 ECD”, “protein.” for “protein. The concentration of soluble ECD of CD47 is 25 nM, and the concentration of soluble ECD of SIRPα is 20 nM.”, “protein.” for “protein. All antibodies as tested can block interaction between human CD47 and different human SIRPα variants.”

[16] = molecular target: T4, human SIRPα v1 on CHOK1 cells; test: competitive FACS, CHOK1 cells stably expressing human SIRPα v1; blocked ligand: mFc tagged human CD47 ECD
Procedure: (§5) Competitive FACS assay was also set up to further compare the blocking activity of the humanized antibodies and some known anti-SIRPα antibodies. Briefly antibody and mFc tagged human CD47 ECD recombinant protein were co-incubated with CHOK1 cells stably expressing human SIRPα v1 or human SIRPα v2. After washing, dye labeled anti-mouse Fc 2nd antibody (Sigma) was added and incubated at 37° C. for 1 hour. Fluorescence intensity was detected. Blocking ratio was determined by blockade of human CD47 ECD recombinant protein binding to SIRPα expressed CHOK1 cells.

[17] = molecular target: T5, human SIRPα v2 on CHOK1 cells; test: competitive FACS, CHOK1 cells stably expressing human SIRPα v2; blocked ligand: mFc tagged human CD47 ECD
Procedure: as §5

T5 sequence (P78324 other isoform, or with tags, fused parts or gaps limits assumed): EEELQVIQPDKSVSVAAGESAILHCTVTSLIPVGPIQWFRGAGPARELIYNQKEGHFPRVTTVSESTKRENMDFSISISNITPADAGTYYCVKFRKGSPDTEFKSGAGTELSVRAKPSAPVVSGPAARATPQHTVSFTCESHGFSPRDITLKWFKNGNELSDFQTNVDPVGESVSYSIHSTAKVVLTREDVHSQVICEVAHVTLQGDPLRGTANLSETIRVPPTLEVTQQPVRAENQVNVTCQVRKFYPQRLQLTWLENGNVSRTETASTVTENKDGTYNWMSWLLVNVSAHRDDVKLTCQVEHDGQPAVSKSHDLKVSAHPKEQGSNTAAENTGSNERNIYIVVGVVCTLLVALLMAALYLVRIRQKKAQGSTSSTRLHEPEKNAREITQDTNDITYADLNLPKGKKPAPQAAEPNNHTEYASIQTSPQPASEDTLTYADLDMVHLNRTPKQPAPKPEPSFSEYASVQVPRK
T4 sequence (P78324 31-504): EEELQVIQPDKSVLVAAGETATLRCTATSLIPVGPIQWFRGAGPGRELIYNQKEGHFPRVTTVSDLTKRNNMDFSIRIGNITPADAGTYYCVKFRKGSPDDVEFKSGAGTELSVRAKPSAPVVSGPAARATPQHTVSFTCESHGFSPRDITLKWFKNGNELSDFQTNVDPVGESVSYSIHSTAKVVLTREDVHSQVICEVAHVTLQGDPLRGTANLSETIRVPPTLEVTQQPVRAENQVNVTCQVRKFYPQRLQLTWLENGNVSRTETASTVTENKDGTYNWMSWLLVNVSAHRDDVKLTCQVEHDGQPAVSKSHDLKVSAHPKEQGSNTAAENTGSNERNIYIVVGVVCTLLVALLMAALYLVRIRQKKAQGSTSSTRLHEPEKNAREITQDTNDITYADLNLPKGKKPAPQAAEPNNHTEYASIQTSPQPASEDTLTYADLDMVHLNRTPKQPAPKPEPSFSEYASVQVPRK
T2 sequence (P78324 31-504): as above
T7 sequence (P78324 31-373): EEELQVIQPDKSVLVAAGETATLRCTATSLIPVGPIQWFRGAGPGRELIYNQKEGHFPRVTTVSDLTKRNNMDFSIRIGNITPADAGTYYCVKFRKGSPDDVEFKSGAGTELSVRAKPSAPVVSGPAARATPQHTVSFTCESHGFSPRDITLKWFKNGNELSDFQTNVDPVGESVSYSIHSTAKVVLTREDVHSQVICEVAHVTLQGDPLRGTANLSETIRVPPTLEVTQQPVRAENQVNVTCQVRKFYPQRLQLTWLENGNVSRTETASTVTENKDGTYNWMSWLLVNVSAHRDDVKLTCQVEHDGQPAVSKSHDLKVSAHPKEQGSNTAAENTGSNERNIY
T6 sequence (P78324 31-373): as above
T1 sequence (P78324 31-373): as above

B1: Reference anti-SIRPα antibody HEFLB (antibody, human IgG4, V domains shown)
VH: EVQLVQSGAEVKKPGESLRISCKASGYSFTSYWVHWVRQMPGKGLEWMGNIDPSDSDTHYSPSFQGHVTLSVDKSISTAYLQLSSLKASDTAMYYCVRGGTGTLAYFAYWGQGTLVTVSS
VL: DVVMTQSPLSLPVTLGQPASISCRSSQSLVHSYGNTYLYWFQQRPGQSPRLLIYRVSNRFSGVPDRFSGSGSGTDFTLKISRVEAEDVGVYYCFQGTHVPYTFGGGTKVEIK
B1: binds [1].

B2: Anti-SIRPα antibody C25 (antibody, V domains shown)
VH: EVQLQQSGAELVKPGASVKLSCTASGFNIKDYYMHWVKQRTEQGLEWIGRIDPEDGETKYAPKFQGKATITADTSSNTAYLQLSSLTSEDTAVYYCDRGLAYWGQGTLVTVSA
VL: QIVLTQSPAIMSASPGEKVTLTCSASSSVSSSYLYWYQQKPGSSPKLWIYSTSNLASGVPARFSGSGSGTSYSLTISSMEAEDAASYFCHQWSSYPYTFGGGTKLEIK
notes: Mouse variable regions; also called 025c; 025
B2 was tested, and the “IC50 (SHP-1 recruitment blocking)” value [2] was 0.28 nM, the “TOP blocking (SHP-1 recruitment)” value [2] was 84.5% and the “IC50 (SHP-1 recruitment blocking)” value [3] was 0.08 nM. The “TOP blocking (SHP-1 recruitment)” value [3] was 87%, the Kd (Human SIRPα v2) was 1.69 nM and the koff (Human SIRPα v2) was 0.00254 s⁻¹. For the same binder, the kon (Human SIRPα v2) was 1.51e+06 M⁻¹ s⁻¹, the EC50 [4] was 1.49 nM and the “TOP MFI” value [4] was 77600 MFI. The EC50 [5] was 1.34 nM, the “TOP MFI” value [5] was 51600 MFI and the EC50 [6] was 1.22 nM. For the same binder, the “TOP MFI” value [6] was 64700 MFI, the EC50 [7] was 0.99 nM and the “TOP MFI” value [7] was 53000 MFI. The “% Competition” value [8] was 93.5%, the “% Competition” value [9] was 19.1% and the “% Competition” value [10] was 15.3%. It also gave an IC50 [11] of 2.12 nM, a TOP blocking [11] of 96.5% and an IC50 [12] of 2.21 nM. The TOP blocking [12] was 96.5%, the IC50 [13] was 2.03 nM and the TOP blocking [13] was 97.5%. For the same binder, the IC50 [14] was 1.86 nM, the TOP blocking [14] was 98.6% and the “IC50 (read off the curve)” value [15] was ~2 nM. The IC50 [16] was 0.4 nM, the TOP blocking [16] was 97.6% and the IC50 [17] was 0.63 nM. The TOP blocking [17] was 99.7%.
